Test results: IntAct's records for PubMed 20048159

B1: Ras-related protein Rab-9A (Homo sapiens), P51151 (parent)
chain: MAGKSSLFKVILLGDGGVGKSSLMNRYVTNKFDTQLFHTIGVEFLNKDLEVDGHFVTMQIWDTAGQERFRSLRTPFYRGSDCCLLTFSVDDSQSFQNLSNWKKEFIYYADVKEPESFPFVILGNKIDISERQVSTEEAQAWCRDNGDYPYFETSAKDATNVAAAFEEAVRRVLATEDRSDHLIQTDTVNLHRKPKPSSSCC
partner: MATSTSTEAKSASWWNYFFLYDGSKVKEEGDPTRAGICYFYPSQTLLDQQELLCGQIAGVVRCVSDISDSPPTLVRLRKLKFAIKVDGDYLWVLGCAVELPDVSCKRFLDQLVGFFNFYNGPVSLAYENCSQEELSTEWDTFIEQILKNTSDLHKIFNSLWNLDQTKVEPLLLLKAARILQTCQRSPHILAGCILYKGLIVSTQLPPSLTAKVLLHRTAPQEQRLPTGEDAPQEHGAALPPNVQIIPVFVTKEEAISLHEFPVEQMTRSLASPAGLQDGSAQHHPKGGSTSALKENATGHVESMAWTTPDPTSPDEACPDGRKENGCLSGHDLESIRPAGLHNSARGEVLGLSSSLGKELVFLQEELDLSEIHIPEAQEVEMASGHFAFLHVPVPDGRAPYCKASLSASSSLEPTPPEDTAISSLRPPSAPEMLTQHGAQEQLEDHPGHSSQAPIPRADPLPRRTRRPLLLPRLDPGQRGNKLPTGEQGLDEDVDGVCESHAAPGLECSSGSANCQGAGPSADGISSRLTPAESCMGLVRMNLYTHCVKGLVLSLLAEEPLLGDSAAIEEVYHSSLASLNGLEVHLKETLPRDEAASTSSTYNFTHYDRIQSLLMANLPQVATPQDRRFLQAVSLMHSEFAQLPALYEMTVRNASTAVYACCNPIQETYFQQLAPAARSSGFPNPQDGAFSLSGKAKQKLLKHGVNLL

Variants of: B1
Details: with hps4_human HPS4, Q9NQG7

How did the “effect of a mutation on the interaction” value turn out when MAGKSSLFKVILLGDGGVGKSSLMNRYVTNKFDAQLFHTIGVEFLNKDLEVDGHFVTMQIWDTAGLERFRSLRTPFYRGSDCCLLTFSVDDSQSFQNLSNWKKEFIYYADVKEPESFPFVILGNKIDISERQVSTEEAQAWCRDNGDYPYFETSAKDATNVAAAFEEAVRRVLATEDRSDHLIQTDTVNLHRKPKPSSSCC [T34A;Q66L] was run?
The value was “with no effect”.

For MAGKSSLFKVILLGDGGVGKSSLMNRYVTNKFDTALFHTIGVEFLNKDLEVDGHFVTMQIWDTAGLERFRSLRTPFYRGSDCCLLTFSVDDSQSFQNLSNWKKEFIYYADVKEPESFPFVILGNKIDISERQVSTEEAQAWCRDNGDYPYFETSAKDATNVAAAFEEAVRRVLATEDRSDHLIQTDTVNLHRKPKPSSSCC [Q35A;Q66L], which “effect of a mutation on the interaction” value is on record?
Its value is “with no effect”.

MAGKSSLFKVILLGDGGVGKSSLMNRYVTNKFDTQLFATIGVEFLNKDLEVDGHFVTMQIWDTAGLERFRSLRTPFYRGSDCCLLTFSVDDSQSFQNLSNWKKEFIYYADVKEPESFPFVILGNKIDISERQVSTEEAQAWCRDNGDYPYFETSAKDATNVAAAFEEAVRRVLATEDRSDHLIQTDTVNLHRKPKPSSSCC [H38A;Q66L] was tested. Which “effect of a mutation on the interaction” value did it give?
Its value is “with no effect”.

How did the “effect of a mutation on the interaction” value turn out when MAGKSSLFKVILLGDGGVGKSSLMNRYVTNKFDTQLFHTAGVEFLNKDLEVDGHFVTMQIWDTAGLERFRSLRTPFYRGSDCCLLTFSVDDSQSFQNLSNWKKEFIYYADVKEPESFPFVILGNKIDISERQVSTEEAQAWCRDNGDYPYFETSAKDATNVAAAFEEAVRRVLATEDRSDHLIQTDTVNLHRKPKPSSSCC [I40A;Q66L] was run?
Its value is “disrupting interaction strength”.

For MAGKSSLFKVILLGDGGVGKSSLMNRYVTNKFDTQLFHTIGAEFLNKDLEVDGHFVTMQIWDTAGLERFRSLRTPFYRGSDCCLLTFSVDDSQSFQNLSNWKKEFIYYADVKEPESFPFVILGNKIDISERQVSTEEAQAWCRDNGDYPYFETSAKDATNVAAAFEEAVRRVLATEDRSDHLIQTDTVNLHRKPKPSSSCC [V42A;Q66L], which “effect of a mutation on the interaction” value is on record?
Its value is “with no effect”.

Which “effect of a mutation on the interaction” value does the source give for MAGKSSLFKVILLGDGGVGKSSLMNRYVTNKFDTQLFHTIGVEALNKDLEVDGHFVTMQIWDTAGLERFRSLRTPFYRGSDCCLLTFSVDDSQSFQNLSNWKKEFIYYADVKEPESFPFVILGNKIDISERQVSTEEAQAWCRDNGDYPYFETSAKDATNVAAAFEEAVRRVLATEDRSDHLIQTDTVNLHRKPKPSSSCC [F44A;Q66L] here?
Its value is “disrupting interaction strength”.

Which “effect of a mutation on the interaction” value does the source give for MAGKSSLFKVILLGDGGVGKSSLMNRYVTNKFDTQLFHTIGVEFLNKDLEVDGHFVTMQIADTAGLERFRSLRTPFYRGSDCCLLTFSVDDSQSFQNLSNWKKEFIYYADVKEPESFPFVILGNKIDISERQVSTEEAQAWCRDNGDYPYFETSAKDATNVAAAFEEAVRRVLATEDRSDHLIQTDTVNLHRKPKPSSSCC [W61A;Q66L] here?
Its value is “disrupting interaction strength”.

With MAGKSSLFKVILLGDGGVGKSSLMNRYVTNKFDTQLFHTIGVEFLNKDLEVDGHFVTMQIWDTAGLERFRSLRTPFYRGSDCCLLTFSVDDSQSFQNLSNWKKEFIYYADVKEPESFPFVILGNKIDISERQVSTEEAQAWCRDNGDYPYFETSAKDATNVAAAFEEAVRRVLATEDRSDHLIQTDTVNLHRKPKPSSSCC [Q66L] as the variant, how does the “effect of a mutation on the interaction” value read?
Its value is “with no effect”.

MAGKSSLFKVILLGDGGVGKSSLMNRYVTNKFDTQLFHTIGVEFLNKDLEVDGHFVTMQIWDTAGLERFRSLRTPAYRGSDCCLLTFSVDDSQSFQNLSNWKKEFIYYADVKEPESFPFVILGNKIDISERQVSTEEAQAWCRDNGDYPYFETSAKDATNVAAAFEEAVRRVLATEDRSDHLIQTDTVNLHRKPKPSSSCC [Q66L;F76A] was tested. Which “effect of a mutation on the interaction” value did it give?
The value was “with no effect”.

For MAGKSSLFKVILLGDGGVGKSSLMNRYVTNKFDTQLFHTIGVEFLNKDLEVDGHFVTMQIWDTAGLERFRSARTPFYRGSDCCLLTFSVDDSQSFQNLSNWKKEFIYYADVKEPESFPFVILGNKIDISERQVSTEEAQAWCRDNGDYPYFETSAKDATNVAAAFEEAVRRVLATEDRSDHLIQTDTVNLHRKPKPSSSCC [Q66L;L72A], which “effect of a mutation on the interaction” value is on record?
Its value is “with no effect”.
